Laboratory results from US10883090B2, “P-coumaroyl-CoA:monolignol transferases” (WISCONSIN ALUMNI RESEARCH FOUNDATION, priority 2017, dated 2021).
Entries after “also recorded” stand apart in the source; their conditions may differ.

Legend:
[1] = Activity screening of cell-free translated PMT enzymes with p-coumaroyl-CoA and monolignol mixture (LC-MS); assay type: biochemical; conditions: fed monolignols (H, G, S) and p-coumaroyl-CoA; FIGS. 3A, 4A, 9
Description: The active enzymes were produced using a wheat germ cell-free translation bilayer method previously reported (Makino, S., Beebe, E. T., Markley, J. L. and Fox, B. G. (2014) Cell-free protein synthesis for functional and structural studies. Methods in Molecular Biology, 1091, 161-178). Briefly, a translation reaction mixture consisting of 60 OD wheat germ extract (CellFree Sciences, Matsuyama, Japan), 0.04 mg/mL creatine kinase, 0.3 mM each amino acid, 12.6 mM HEPES-KOH, pH 7.8, 52.6 mM potassium acetate, 1.3 mM magnesium acetate, 0.2 mM spermidine HCl, 2.1 mM DTT, 0.6 mM ATP, 0.13 mM GTP, 8.4 mM creatine phosphate, and 0.003% sodium azide was prepared and combined with non-purified, fresh transcription at a ratio of 4 parts reaction mix to 1 part transcription. A feeding layer was prepared consisting of 0.3 mM each amino acid, 24 mM HEPES-KOH, pH 7.8, 100 mM potassium acetate, 2.5 mM magnesium acetate, 0.4 mM spermidine HCl, 4 mM DTT, 1.2 mM ATP, 0.25 mM GTP, 16 mM creatine phosphate, and 0.005% sodium azide, of which […] was added to wells of a U-bottom 96-well plate. 25 μL of the denser translation reaction mixture was carefully underlayed below the feeding layer, forming a bilayer. The plate was sealed and incubated at 22° C. for 18 h. The fully-diffused 150-μL bilayer reaction was then harvested and used for expression analysis by SDS-PAGE, and activity screening. […]

[2] = Activity screening of cell-free translated PMT enzymes with feruloyl-CoA and monolignol mixture (LC-MS); assay type: biochemical; conditions: fed monolignols (H, G, S) and feruloyl-CoA, FIGS. 3B, 4B, 10
Description: The active enzymes were produced using a wheat germ cell-free translation bilayer method previously reported (Makino, S., Beebe, E. T., Markley, J. L. and Fox, B. G. (2014) Cell-free protein synthesis for functional and structural studies. Methods in Molecular Biology, 1091, 161-178). Briefly, a translation reaction mixture consisting of 60 OD wheat germ extract (CellFree Sciences, Matsuyama, Japan), 0.04 mg/mL creatine kinase, 0.3 mM each amino acid, 12.6 mM HEPES-KOH, pH 7.8, 52.6 mM potassium acetate, 1.3 mM magnesium acetate, 0.2 mM spermidine HCl, 2.1 mM DTT, 0.6 mM ATP, 0.13 mM GTP, 8.4 mM creatine phosphate, and 0.003% sodium azide was prepared and combined with non-purified, fresh transcription at a ratio of 4 parts reaction mix to 1 part transcription. A feeding layer was prepared consisting of 0.3 mM each amino acid, 24 mM HEPES-KOH, pH 7.8, 100 mM potassium acetate, 2.5 mM magnesium acetate, 0.4 mM spermidine HCl, 4 mM DTT, 1.2 mM ATP, 0.25 mM GTP, 16 mM creatine phosphate, and 0.005% sodium azide, of which […] was added to wells of a U-bottom 96-well plate. 25 μL of the denser translation reaction mixture was carefully underlayed below the feeding layer, forming a bilayer. The plate was sealed and incubated at 22° C. for 18 h. The fully-diffused 150-μL bilayer reaction was then harvested and used for expression analysis by SDS-PAGE, and activity screening.
The enzyme mixture was screened for activity with p-coumaroyl-CoA (FIG. 2B) and feruloyl-CoA (FIG. 2C) and all three monolignols (FIG. 2A) (p-coumaryl, coniferyl, and sinapyl alcohol). Each enzyme was tested individually alongside positive and negative controls following the procedure previously reported (Withers, S., Lu, F., Kim, H., Zhu, Y., Ralph, J. and Wilkerson, C. G. (2012) Identification of a grass-specific enzyme that acylates monolignols with p-coumarate. Journal of Biological Chemistry, 287, 8347-8355). Briefly, the assay was initiated by adding 10 μL of wheat germ cell-free translation containing one of the PMT enzymes at a concentration of 1.5-2 μM to a reaction containing 50 mM sodium phosphate buffer, pH 6, 1 mM dithiothreitol (DTT), 1 mM CoA thioester, 1 mM monolignol mixture (each monolignol at 1 mM concentration), and deionized water in a final volume of 50 μL. After a 30-min incubation, the reaction was stopped by the addition of an equal volume 100 mM hydrochloric acid. Reaction products were solubilized by adjusting the solution to 50% methanol. An identical assay with no enzyme added was performed for every reaction. Samples were filtered through 0.2 μm filters prior to analysis by liquid chromatography-mass spectrometry (LC-MS). […]

Row | Molecule | p-coumaroyl-CoA:monolignol transferase activity (in words) [1] | feruloyl-CoA monolignol transferase activity (in words) [2] | feruloyl-CoA monolignol transferase activity (in words) ([2]; listed as SEQ ID NO:2) | feruloyl-CoA monolignol transferase activity (in words) ([2]; listed as SEQ ID NO:4)
1 | PvPMT: Panicum virgatum (switchgrass) p-coumaroyl-CoA:monolignol transferase, amino acid sequence SEQ ID NO:2, Pavir.J00672.1 (protein, listed as Panicum virgatum) MGTIGFPVTRTSRSLVAPSSATPQETLHLSVIDRVAGLRHLVRSLHVFDGRRGEAAVRTPAETLRAALGKALVDYYPLAGRFVEEDGEVRVACTAGGAWFVEAAAACTLEEVKHLDHPMVIPKEDLLPEPAPDVNPLDMPLMMQVTEFACGGFVVGLISVHTIADGLGAGQFINAVADYARGLPRPRVLPVWARDVIPAPSRIVSPPPRFDLLDLRYFTVDLSPEHIAKVKSSFFEATGQRCSAFDVCVAKTWQSRVRALRLDGDDPARPIHVCFFANTRHLLPQLAPGFYGNCFYTVRATRPCGEVAAAGVVEVVRAIRDAKARLGADFARWAAGGFERDPYELTFSYDSLFVSDWTRLGFLEADYGWGAPAHVVPFSYHPFMAVAVIGAPPAPKPGARVMTMCVTEKHLPEFQEQMNAFAAGNHQ | active PMTs, coupling monolignols to p-coumaroyl-CoA; also recorded: found to produce monolignol p-coumarate conjugates | limited to no feruloyl-CoA monolignol transferase activity; also recorded: little to no activity | no relevant activity in generating monolignol ferulates | –
2 | SbPMT: Sorghum bicolor (sorghum) p-coumaroyl-CoA:monolignol transferase, amino acid sequence SEQ ID NO:4, Sb09g002910.1 (protein, Sorghum bicolor) MGTIDDTAGLFPVTRTNRSLVPPSSATPQETLRLSVIDRVAGLRHLVRSLHVFAGGENKKQAAPPAKSLREALGKALVDYYPFAGRFVEEDGEVRVACTGEGAWFVEAAAACSLEEVRHLDHPMLIPKEELLPEPAPGVNPLDMPLMMQVTEFTCGGFVVGLISVHTIADGLGAGQFINAVADYARGGATAGAVTRPRITPIWARDVIPDPPKMPAPPPRLDLLDLVYFTTDLSPDHIAKVKSSYLESTGQRCSAFDVCVARTWQARVRALRLPDAAAPVHVCFFANTRHLLPATAAAPASGFYGNCFYTVKATRPSGEVAAADIVDVVRAIRDAKARLAADFARWAAGGFDRDPYELTFTYDSLFVSDWTRLGFLEADYGWGTPTHVVPFSYHPFMAVAVIGAPPAPKPGARIMTMCVQEQHLPEFQEQMNQPCS | active PMTs, coupling monolignols to p-coumaroyl-CoA; also recorded: found to produce monolignol p-coumarate conjugates | limited to no feruloyl-CoA monolignol transferase activity; also recorded: little to no activity | – | no relevant activity in generating monolignol ferulates
